# US8822187B1, “Polypeptides, nucleic acid molecules, and methods for synthesis of triterpenes” (University of Kentucky Research Foundation, priority 2011, dated 2014)
# Entries after “also recorded” stand apart in the source; their conditions may differ.
# Assays:
# [1] = Purified bacterial-expressed enzymes incubated with FPP, products by GC-MS or TLC/scintillation counting; type: biochemical; conditions: for squalene or botryococcene biosynthesis by purified enzyme in vitro: FPP as substrate, enzyme assayed alone
# Text: (§1) FIG. 6 depicts the functional characterization of the squalene synthase-like genes of Botryococcus braunii race B. The squalene synthase-like genes, SSL-1, SSL-2 and SSL-3, were expressed in yeast separately (SSL-1 (B), SSL-2(C) or SSL-3(D)) or in combinations (SSL-1+SSL-2(E), SSL-1+SSL-3(F)) and the hexane extractable metabolites profiled by GC-MS. The chemical profile of yeast not engineered with any gene constructs serves as the background control (A). […] Data (J) represents mean±S.E.M. obtained from three independent experiments (n=3). The chromatograms (A-I) are also annotated for the elution behavior of botryococcene (1), squalene (2), presqualene alcohol (3) and bisfarnesyl ether (4).
# The recombinant vectors were transformed into E. coli strain BL21(DE3) according to the manufacturer's recommendations (Novagen). The selected lines were grown with kanamycin selection at 37° C. with vigorous shaking until the cultures reached an optical density of ˜0.8 (OD600 nm), then expression of the corresponding SSL gene induced by addition of 0.5 mM isopropylthio-β-D-galactoside (IPTG) and the cultures incubate for an additional 3 to 20 h with shaking at room temperature. One hundred ml of the culture was subject to centrifugation at 4,000 g for 10 min, the pelleted cells resuspended in 10 ml of lysis buffer containing 50 mM NaH2PO4, pH 7.8, 300 mM NaCl, 10 mM imidazole, 1 mM MgCl2, 1 mM PMSF, 1% glycerol (v/v), then sonicated 4× for 10 sec with a microprobe sonicator at 60% maximum power. The samples were cooled on ice for 2 min between sonication treatments. The sonicate was centrifuged at 16,000 g for 10 min at 4° C. and the supernatant used for purification of the hexa-histidine tagged enzymes.
# Purification of the bacterial expressed enzymes was afforded by the amino-terminal hexa-histidine tag using His-Select Cobalt affinity gel (Sigma) columns according the manufacturer's recommendations. Recovery of proteins with the expected molecular sizes was determined by SDS-PAGE. The purified protein fractions were concentrated using Amicon Ultra (0.5 ml, 10K) centrifugation filter units and stored in 300 mM NaCl, 20 mM Tris-HCl pH 7.5, 5 mM dithiothreitol, 2 mM MgCL2, 50% glycerol (v/v) at −20° C. for 2-3 weeks without noticeable loss of activity.
# Typical enzyme assays were initiated by mixing aliquots of purified enzyme with 50 mM Mops, pH 7.3, 20 mM MgCl2, 2.5 mM 2-mercaptoethanol, 10 μM [1-^3H]-FPP (˜2×10^5 dpm total), and 2 mM NADPH in total reaction volume of 50 μl. Reactions were incubated at 37° C. for 1 h and then extracted with 100 μl n-hexane or 100 ul MTBE. Forty μl of the n-hexane or MTBE extract was then spotted onto silica TLC plates with authentic standards of botryococcene and squalene and developed with n-hexane, or standards of bisfarnesyl ether and developed with n-hexane:MTBE, 25:1. The standards were visualized with iodine vapors and TLC zones corresponding to the standards were scrapped and analyzed by scintillation spectrometry. If Botryococcus lysate was added to enzyme assays, typically 5 μl of lysate (corresponding to 10 μg total protein) prepared from B. braunii cells according to Okada et al. (1) was added. […] Extracts were resuspended in 50 μl hexane and an aliquot analyzed by GC-MS with a Varian CP-3800 GC coupled to a Varian Saturn 2200 MS/MS (Varian Medical Systems) using a Supelco SLB-5 ms fused silica capillary column (30 m×0.25 mm×0.25 μM film thickness, Supelco). […]
# TN7 yeast line = test: Expression of SSL genes in TN7 yeast line, hexane extractable metabolites by GC-MS; type: cell-based
# Text: as §1
# FIG. 10 includes a comparison of botryococcene production in yeast engineered with different configurations of SSL-1 and SSL-3. Yeast line TN7 was engineered with the SSL-1 and SSL-3 genes on separate plasmids (squares), with gene fusions (SSL-1 fused to SSL-3 via a triplet repeat of GGSG (triangles), or vice versa (diamonds)), or with 63 or 71 amino acids of the carboxy terminus of the Botryococcus squalene synthase, sequences containing a membrane spanning domain, appended to the carboxy termini of the SSL-1 and SSL-3 enzymes, respectively (circles). The data represents mean±S.E.M.
# The various recombinant yeast expression vectors were introduced into the TN7 yeast line via lithium acetate transformation, followed by selection for uracil and leucine auoxtrophic growth (Takahashi, et al. (2007)). […] Individual colonies of TN7 and the various TN7-transformants were subsequently grown in 25 ml of YPDE (nutrient rich) or Yeast Synthetic Drop-out medium (selection) for the indicated time at 25° C. before analyzing the cultures for production of novel triterpene components. In brief, 1 ml aliquots of the culture were combined with 1 ml of acetone, vigorously mixed, and incubated at room temperature for 10 min. One ml of hexane was added and mixed vigorously for 60 sec. […] The dried extract was resuspended in 50-500 μl of n-hexane and a 1 μl aliquot analyzed by GC-MS as described above. […]
# [2] = SSL-2 incubated by itself, NADPH-dependent
Molecule,squalene or botryococcene biosynthesis by purified enzyme in vitro [1],"bisfarnesyl ether share of products [1, 2]","squalene share of products [1, 2]","squalene accumulating, share of the total (TN7 yeast line; expressed in yeast)",products accumulating in yeast (TN7 yeast line; gene expressed separately in yeast)
SSL-2: Botryococcus braunii race B squalene synthase-like 2 enzyme; bacterial form is truncated SSL-2-tr2 (protein) MVKLVEVLQHPDEIVPILQMLHKTYRAKRSYKDPGLAFCYGMLQRVSRSFSVVIQQLPDELRHPICVFYLILRALDTVEDDMNLPNEVKIPLLRTFHEHLFDRSWKLKCGYGPYVDLMENYPLVTDVFLTLSPGAQEVIRDSTRRMGNGMADFIGKDEVHSVAEYDLYCHYVAGLVGSAVAKIFVDSGLEKENLVAEVDLANNMGQFLQKTNVIRDYLEDINEEPAPRMFWPREIWGKYAQELADFKDPANEKAAVQCLNHMVTDALRHCEIGLNVIPLLQNIGILRSCLIPEVMGLRTLTLCYNNPQVFRGVVKMRRGETAKLFMSIYDKRSFYQTYLRLANELEAKCKGEASGDPMVATTLKHVHGIQKSCKAALSSKELLAKSGSALTDDPAIRLLLLVGVVAYFAYAFNLGDVRGEHGVRALGSILDLSQKGLAVASVALLLLVLLARSRLPLLTSASSKQ,"neither bacterial-expressed, purified enzymes exhibited any botryococcene biosynthesis; also recorded: low capacity for squalene biosynthesis",~90%,~10%,~10 % of the total,–
"Botryococcus braunii race B squalene synthase-like 1 (SSL-1), wild type, hexa-histidine tagged, SEQ ID NO: 2 (Botryococcus braunii) (protein) MTMHQDHGVMKDLVKHPNEFPYLLQLAATTYGSPAAPIPKEPDRAFCYNTLHTVSKGFPRFVMRLPQELQDPICIFYLLLRALDTVEDDMNLKSETKISLLRVFHEHCSDRNWSMKSDYGIYADLMERFPLVVSVLEKLPPATQQTFRENVKYMGNGMADFIDKQILTVDEYDLYCHYVAGSCGIAVTKVIVQFNLATPEADSYDFSNSLGLLLQKANIITDYNEDINEEPRPRMFWPQEIWGKYAEKLADFNEPENIDTAVKCLNHMVTDAMRHIEPSLKGMVYFTDKTVFRALALLLVTAFGHLSTLYNNPNVFKEKVRQRKGRIARLVMSSRNVPGLFRTCLKLANNFESRCKQETANDPTVAMTIKRLQSIQATCRDGLAKYDTPSGLKSFCAAPTPTK",did not exhibit either squalene nor botryococcene biosynthesis,–,–,–,accumulated to significant levels
